T1: recombinant human PTK7 (Acro Biosystems Cat. No. PT7-H52H3) (human, UniProt Q13308 31-704)
T1 construct: Bought recombinant protein; also called human PTK7 analyte
T1 sequence: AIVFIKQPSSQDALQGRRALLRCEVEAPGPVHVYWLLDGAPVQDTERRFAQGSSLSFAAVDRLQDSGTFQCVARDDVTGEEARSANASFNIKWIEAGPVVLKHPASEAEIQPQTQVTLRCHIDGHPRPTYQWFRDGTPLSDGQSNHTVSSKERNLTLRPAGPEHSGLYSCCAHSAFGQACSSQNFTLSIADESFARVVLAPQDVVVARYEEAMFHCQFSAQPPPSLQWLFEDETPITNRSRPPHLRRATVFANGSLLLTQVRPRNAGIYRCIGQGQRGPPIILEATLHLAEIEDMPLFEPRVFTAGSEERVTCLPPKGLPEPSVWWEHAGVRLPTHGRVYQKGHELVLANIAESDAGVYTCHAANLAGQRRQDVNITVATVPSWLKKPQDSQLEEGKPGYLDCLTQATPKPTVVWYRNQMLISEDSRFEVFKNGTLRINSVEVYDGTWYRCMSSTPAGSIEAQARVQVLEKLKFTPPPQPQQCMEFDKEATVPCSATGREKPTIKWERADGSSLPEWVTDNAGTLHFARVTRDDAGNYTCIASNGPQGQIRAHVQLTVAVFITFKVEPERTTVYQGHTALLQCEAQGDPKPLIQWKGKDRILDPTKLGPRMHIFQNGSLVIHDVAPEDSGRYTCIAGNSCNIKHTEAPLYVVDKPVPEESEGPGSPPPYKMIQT

T2: human PTK-7 on cells (OV90-PTK-7, NCI-H446, OVCAR-3) (human, UniProt Q13308 31-1070)
T2 sequence: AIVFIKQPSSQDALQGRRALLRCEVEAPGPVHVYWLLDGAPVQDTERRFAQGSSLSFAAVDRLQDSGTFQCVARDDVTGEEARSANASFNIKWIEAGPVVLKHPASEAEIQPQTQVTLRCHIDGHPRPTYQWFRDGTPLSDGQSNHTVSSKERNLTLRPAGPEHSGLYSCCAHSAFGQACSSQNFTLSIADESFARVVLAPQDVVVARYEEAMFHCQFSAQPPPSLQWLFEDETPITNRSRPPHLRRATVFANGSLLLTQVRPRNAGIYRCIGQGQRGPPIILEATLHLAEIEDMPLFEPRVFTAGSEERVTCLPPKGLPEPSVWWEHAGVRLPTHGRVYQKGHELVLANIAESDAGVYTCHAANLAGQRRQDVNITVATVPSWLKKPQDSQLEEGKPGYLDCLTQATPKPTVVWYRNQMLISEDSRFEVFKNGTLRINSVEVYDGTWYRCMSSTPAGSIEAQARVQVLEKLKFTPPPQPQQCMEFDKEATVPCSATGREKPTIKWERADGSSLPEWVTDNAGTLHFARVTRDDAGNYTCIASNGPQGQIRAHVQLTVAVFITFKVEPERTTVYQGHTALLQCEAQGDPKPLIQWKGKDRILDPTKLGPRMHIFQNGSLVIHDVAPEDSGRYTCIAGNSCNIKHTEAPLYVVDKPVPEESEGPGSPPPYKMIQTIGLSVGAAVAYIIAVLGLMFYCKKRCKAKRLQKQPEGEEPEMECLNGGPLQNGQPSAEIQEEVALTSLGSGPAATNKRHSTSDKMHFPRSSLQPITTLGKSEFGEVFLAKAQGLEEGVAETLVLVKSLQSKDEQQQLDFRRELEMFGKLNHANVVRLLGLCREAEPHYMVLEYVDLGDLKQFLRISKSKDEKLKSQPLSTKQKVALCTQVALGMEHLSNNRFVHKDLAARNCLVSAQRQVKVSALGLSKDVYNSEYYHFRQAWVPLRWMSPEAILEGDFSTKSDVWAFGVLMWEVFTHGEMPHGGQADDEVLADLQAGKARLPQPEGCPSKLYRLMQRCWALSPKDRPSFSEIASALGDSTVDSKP


Assays:
[1] = target: T1, recombinant human PTK7 (Acro Biosystems …); test: SPR, Biacore 8K+, ADC captured by anti-human Fc, human PTK7 as analyte, 37 C, 1:1 model
Description: A Biacore 8K+ instrument (Cytiva, Marlborough, MA) was used to determine kinetics and affinity parameters for the binding interactions of ADCs binding to recombinant human PTK7 (Acro Biosystems Cat. No. PT7-H52H3, Newark, DE).
In each analysis cycle, a different ADC was captured on flow cell 2 of each channel by injecting a 5 μg/mL solution at 10 μL/min for 2 minutes. After capture, the same analyte was injected on flow cells 1 and 2 in all 8 channels for 2 minutes at 30 μL/min and dissociation was monitored for 10 minutes. After dissociation, all surfaces were regenerated with three consecutive 1-minute injections of 75 mM phosphoric acid at 10 μL/min. ADC capture and analyte cycles were repeated to obtain human PTK7 analyte binding of each ADC at analyte concentrations of 0, 2.47, 7.41, 22.2, 66.7, 200, and 600 nMs.
Sensorgram data were reference subtracted and blank subtracted, then globally fit with the default 1:1 binding model in Biacore Insight Evaluation Software v3.0.12.15655, as shown in Table 4.

[2] = target: T2, human PTK-7 on cells (OV90-PTK-7, …); test: cell-based or functional assay
[3] = target: T2, human PTK-7 on cells (OV90-PTK-7, …); test: flow cytometry, OVCAR3 cells
Description: (§1) OV90-PTK-7, overexpressing engineered ovarian tumor line representing high expression, NCI-H446 human lung cancer cells representing medium endogenous expression and OVCAR-3 human ovarian cancer cells representing low endogenous expression. […] OV90 parental cells and Namalwa-luc-GFP cells were selected as the PTK-7 negative cell lines. Antibody binding was quantified via flow cytometry and both the EC₅₀ of the binding curves and the maximum binding MFI for each antibody were recorded.
(§2) Cells were dissociated using non-enzymatic dissociation buffer for 5 min at 37° C. Cells were counted and aliquoted to a V-bottom polypropylene 96-well plate at 10⁵ cells/well. Cells were centrifuged at 1800 rpm×3 min and the supernatant discarded. An 11-point antibody dilution series was prepared in assay buffer (1×PBS containing 5% FBS) starting at 300 nM and diluting 1:4 down. The dilution series was added to cells at 100 μL/well and mixed by pipetting. Several untreated control wells/cell lines were prepared in assay buffer alone. Cells and antibodies were incubated at 4° C. on an orbital shaker for 1 hour. After incubation, the assay plates were centrifuged and washed twice with 300 μL/well of assay buffer. Cell pellets were then stained with a 1:500 dilution of Alexa647 conjugated mouse anti-human IgG secondary antibody in assay buffer, at 100 μL/well. Assay plates were incubated shaking in the dark at 4° C. for 1 hour. After incubation, plates were centrifuged, and the cells were washed twice with 300 μL/well of assay buffer. A 1:2000 dilution of Zombie Green viability marker in 1×PBS was aliquoted to the cells at 100 μL/well and plates were incubated in the dark for 10 min shaking at room temperature. Cell pellets were then washed 1× with assay buffer and fixed with 200 μL/well of 4% paraformaldehyde in 1×PBS in the dark at room temperature for 15 min. Cells were centrifuged and washed before resuspending in 100 μL of assay buffer for acquisition on Attune Cytpix Cytometer.
(§3) Cells were acquired on an Attune Cytpix Cytometer and FCS files generated using Attune™ Cytometric Software (v. 6.0.1). FCS files were then analyzed on FlowJo (v10.8.1).

[4] = target: T2, human PTK-7 on cells (OV90-PTK-7, …); test: flow cytometry, OVCAR3 cells; against cofetuzumab
Description: as §1
as §2, with “Cells were centrifuged and washed before resuspending in 100 μL of assay buffer for acquisition on Attune Cytpix Cytometer.” left out
as §3

[5] = target: T2, human PTK-7 on cells (OV90-PTK-7, …); test: flow cytometry, NCI-H446 cells; against cofetuzumab
Description: as §1
as §2, with “Cells were centrifuged and washed before resuspending in 100 μL of assay buffer for acquisition on Attune Cytpix Cytometer.” left out
as §3

[6] = target: T2, human PTK-7 on cells (OV90-PTK-7, …); test: flow cytometry, NCI-H446 cells
Description: as §1, §2, §3

[7] = target: T2, human PTK-7 on cells (OV90-PTK-7, …); test: flow cytometry, OV90-PTK-7 cells; against cofetuzumab
Description: as §1
as §2, with “Cells were centrifuged and washed before resuspending in 100 μL of assay buffer for acquisition on Attune Cytpix Cytometer.” left out
as §3

[8] = target: T2, human PTK-7 on cells (OV90-PTK-7, …); test: flow cytometry, OV90-PTK-7 cells
Description: as §1, §2, §3

Binder	Kd [1] [nM]	koff [1] [s⁻¹]	kon [1] [M⁻¹ s⁻¹]	Average Max MFI [3] [MFI]	% of Cofetuzumab (Average Max MFI) [4] [%]	% of Cofetuzumab (Average Max MFI) [5] [%]	Average Max MFI [6] [MFI]	EC50 [6] [nM]	% of Cofetuzumab (Average Max MFI) [7] [%]	Average Max MFI [8] [MFI]	EC50 [8] [nM]	EC50 [3] [nM]	Cytotoxicity IC50, OVCAR-3 cells (CellTiter-Glo, 7 days) [2] [nM]
Ab1-PSAR10-VA-exatecan (other, PSAR10-VA-exatecan linker-payload (Formula XV) on cysteine thiols after full reduction of the antibody (DAR 8 procedure); positions not stated for this ADC, Antibody-drug conjugate of Ab1; also called Ab1-VA-Exatecan) heavy: EVQLVESGGGLVKPGGSLRLSCAASGFTFSSYIMNWVRQAPGKGLEWVSSISSSSTFIYYADSVKGRFTISRDNAKNSLYLQMNSLRAEDTAVYYCAKGFDYWGQGTLVTVSSASTKGPSVFPLAPSSKSTSGGTAALGCLVKDYFPEPVTVSWNSGALTSGVHTFPAVLQSSGLYSLSSVVTVPSSSLGTQTYICNVNHKPSNTKVDKRVEPKSCDKTHTCPPCPAPEAAGGPSVFLFPPKPKDTLMISRTPEVTCVVVSVSHEDPEVKFNWYVDGVEVHNAKTKPREEQYNSTYRVVSVLTVLHQDWLNGKEYKCKVSNKALPAPIEKTISKAKGQPREPQVYTLPPSREEMTKNQVSLTCLVKGFYPSDIAVEWESNGQPENNYKTTPPVLDSDGSFFLYSKLTVDKSRWQQGNVFSCSVMHEALHNHYTQKSLSLSPGK light: DIQLTQSPSFLSASVGDRVTITCRASQDISSYLVWYQQKPGKAPKLLIYAASTLQSGVPSRFSGSGSGTEFTLTISSLQPEDFATYYCQQLNTYPRTFGQGTKVEIKRTVAAPSVFIFPPSDEQLKSGTASVVCLLNNFYPREAKVQWKVDNALQSGNSQESVTEQDSKDSTYSLSSTLTLSKADYEKHKVYACEVTHQGLSSPVTKSFNRGEC	28.9	0.0342	1.19e+06	–	–	–	–	–	–	–	–	–	4
Ab2 (antibody, human IgG1, kappa, L234A L235A, V domains shown, Fully human antibody; also called Antibody 2) VH: QVQLQESGPGLVKPSETLSLTCTVSGGSISTYYWSWIRQPAGKGLEWIGRIYTSGLTNYNPSLKSRVTMSVDTSKNQFSLKLSSVTAADTAVYYCARDPHYYDGSGFDYWGQGTLVTVSS VL: not shown	–	–	–	19200	87.7	97.6	26200	0.6	103	70500	1.83	–	–
Ab1 (antibody, human IgG1, kappa, L234A L235A, V domains shown, Fully human antibody; also called Antibody 1; PTK-7 Antibody Ab1) VH: EVQLVESGGGLVKPGGSLRLSCAASGFTFSSYIMNWVRQAPGKGLEWVSSISSSSTFIYYADSVKGRFTISRDNAKNSLYLQMNSLRAEDTAVYYCAKGFDYWGQGTLVTVSS VL: DIQLTQSPSFLSASVGDRVTITCRASQDISSYLVWYQQKPGKAPKLLIYAASTLQSGVPSRFSGSGSGTEFTLTISSLQPEDFATYYCQQLNTYPRTFGQGTKVEIKR	–	–	–	15700	71.6	86.3	23200	0.7	96.5	66100	1.25	2.81	–

More lines, main results first:

Kd [1] [nM]	koff [1] [s⁻¹]	kon [1] [M⁻¹ s⁻¹]	Average Max MFI [3] [MFI]	% of Cofetuzumab (Average Max MFI) [4] [%]	% of Cofetuzumab (Average Max MFI) [5] [%]	Average Max MFI [6] [MFI]	EC50 [6] [nM]	% of Cofetuzumab (Average Max MFI) [7] [%]	Average Max MFI [8] [MFI]	EC50 [8] [nM]	EC50 [3] [nM]	Binder	Cytotoxicity IC50, OVCAR-3 cells (CellTiter-Glo, 7 days) [2] [nM]
–	–	–	16400	75	97.4	26100	0.54	102	69900	1.28	0.95	Ab4 (antibody, human IgG1, kappa, L234A L235A, V domains shown, Fully human antibody; also called Antibody 4; PTK-7 Antibody Ab4) VH: EVQLVESGGGLVKPGGSLRLSCAASGFTFSSYSMNWVRQAPGKGLEWVSSIDSSSSFIYYADSVKGRFTISRDNAKNSLYLQMNSLRAEDTAVYYCARGTGLFDFWGQGTLVTVSS VL: EIVLTQSPGTLSLSPGERATLSCRASQSFSSSYLAWYQQKPGQAPRLLIYGASSRATGIPDRFSGSGSGTDFTLTISRLEPEDFAVYYCQQYGRTPWTFGQGTKVEIKR	–
–	–	–	21900	–	–	26800	0.54	–	68500	1.41	0.7	Cofetuzumab (antibody, V domains shown) VH: QVQLVQSGPEVKKPGASVKVSCKASGYTFTDYAVHWVRQAPGKRLEWIGVISTYNDYTYNNQDFKGRVTMTRDTSASTAYMELSRLRSEDTAVYYCARGNSYFYALDYWGQGTSVTVSS VL: EIVLTQSPATLSLSPGERATLSCRASESVDSYGKSFMHWYQQKPGQAPRLLIYRASNLESGIPARFSGSGSGTDFTLTISSLEPEDFAVYYCQQSNEDPWTFGGGTKLEIK	–

— patent US20250332277A1 (Eli Lilly, published 2025)
